Data: PMC13486763

Molecular target: Porcine RNA polymerase II (porcine) (UniProt I3LGP4)
Assay: mass photometry; Pol II or Pol II-Gdown1 complex with GPN1-GPN3 and/or RPAP2 in a 1:2:2 molar ratio, 30 minutes at 4 °C; measured at 20 nM; 20 mM HEPES-NaOH pH 7.9, 100 mM NaCl, 2 mM MgCl2, 10 µM ZnCl2, 1 mM DTT

- stoichiometry N: 2
Substance: Porcine RNA polymerase II (from UniProt I3LGP4 127-1300; P60899 1-125; A0A4X1VYD0 1-67; A0A8D0JYF1 1-58) (complex)
